± gives the standard deviation.
Test: collision cross section of modified peptide (TIMS, N2, iRT-aligned); higher = larger / more extended gas-phase ion
Method in brief: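 Collision cross section values rest on the Mason-Schamp equation applied to calibrated, run-aligned mobility data from synthetic peptides. Mobility (1/K0) was calibrated with three reference ions and aligned per run to the median iRT peptide deviation, and 1–3 technical replicates of the most abundant feature per charge state were averaged. Data came from a timsTOF Pro/HT in dda-PASEF mode (nitrogen, ~2.4 mbar) after a 120-min nanoflow C18 gradient at 60 °C.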

[1] = charge state: 2, modification: Methyl (K)
[2] = charge state: 3, modification: Methyl (K)
[3] = charge state: 2, modification: Propionyl
[4] = charge state: 2, modification: Succinyl
[5] = charge state: 2, modification: Trimethyl (K)
[6] = charge state: 3, modification: Trimethyl (K)
[7] = charge state: 2, modification: hydroxyisobutyryl
[8] = charge state: 2, modification: Nitro (Y)
[9] = charge state: 2, modification: Phospho (Y)
[10] = charge state: 2, modification: Acetyl (K)
[11] = charge state: 2, modification: Biotin
[12] = charge state: 2, modification: Butyryl
[13] = charge state: 2, modification: Crotonyl
[14] = charge state: 2, modification: Dimethyl (K)
[15] = charge state: 3, modification: Dimethyl (K)
[16] = charge state: 2, modification: Formyl
[17] = charge state: 2, modification: Glutarylation
[18] = charge state: 2, modification: GlyGly (K)
[19] = charge state: 3, modification: GlyGly (K)
[20] = charge state: 2, modification: Malonyl
[21] = charge state: 3, modification: Acetyl (K)
[22] = charge state: 3, modification: Butyryl
[23] = charge state: 3, modification: Crotonyl
[24] = charge state: 3, modification: Formyl
[25] = charge state: 3, modification: Glutarylation
[26] = charge state: 3, modification: Succinyl
[27] = charge state: 3, modification: hydroxyisobutyryl
[28] = charge state: 2, modification: HexNAc (ST)
[29] = charge state: 3, modification: HexNAc (ST)
[30] = charge state: 2, modification: Citrullination (R)
[31] = charge state: 3, modification: Methyl (R)
[32] = charge state: 2, modification: Hydroxyproline
[33] = charge state: 3, modification: Hydroxyproline

In the case of LEKTIDDLEEK [_LEK(Methyl (K))TIDDLEEK_], the collision cross section [1] is reported as 405.66 ± 1.3 Å² and the collision cross section [2] is reported as 473.34 ± 3.6 Å².
For LEKTIDDLEEK [_LEK(Propionyl)TIDDLEEK_], the collision cross section [3] was 406.15 ± 0.38 Å².
LEKTIDDLEEK [_LEK(Succinyl)TIDDLEEK_] showed a collision cross section [4] of 408.25 ± 0.55 Å².
For “LEKTIDDLEEK [_LEK(Trimethyl (K))TIDDLEEK_]”, the collision cross section [5] was 402.76 ± 0.62 Å² and the collision cross section [6] was 468.63 ± 1.5 Å².
Work on “LEKTIDDLEEK [_LEK(hydroxyisobutyryl)TIDDLEEK_]” yielded a collision cross section [7] of 411.13 ± 0.32 Å².
LELAQYR [_LELAQY(Nitro (Y))R_] showed a collision cross section [8] of 326.89 ± 0.56 Å².
In the case of LELAQYR [_LELAQY(Phospho (Y))R_], the collision cross section [9] is reported as 329.12 ± 0.75 Å².
LEQVEKELLR [_LEQVEK(Acetyl (K))ELLR_] gave a collision cross section [10] of 385.81 ± 0.48 Å².
For LEQVEKELLR [_LEQVEK(Biotin)ELLR_], the collision cross section [11] was 410.78 Å².
In the case of LEQVEKELLR [_LEQVEK(Butyryl)ELLR_], the collision cross section [12] is reported as 391.61 ± 1.3 Å².
With LEQVEKELLR [_LEQVEK(Crotonyl)ELLR_] the collision cross section [13] was 389.19 ± 0.8 Å².
LEQVEKELLR [_LEQVEK(Dimethyl (K))ELLR_] gave a collision cross section [14] of 388.36 ± 0.25 Å² and a collision cross section [15] of 444.88 ± 2.1 Å².
Substance LEQVEKELLR [_LEQVEK(Formyl)ELLR_] has a collision cross section [16] of 382.29 ± 0.41 Å².
Substance “LEQVEKELLR [_LEQVEK(Gluratylation)ELLR_]” has a collision cross section [17] of 392.7 ± 0.12 Å².
LEQVEKELLR [_LEQVEK(GlyGly (K))ELLR_] showed a collision cross section [18] of 394.68 ± 0.37 Å² and a collision cross section [19] of 460.7 ± 1.1 Å².
With LEQVEKELLR [_LEQVEK(Malonyl)ELLR_] the collision cross section [20] was 382.93 ± 0.62 Å².
LEQVEKELLR [_LEQVEK(Methyl (K))ELLR_] gave a collision cross section [1] of 386.67 ± 0.96 Å² and a collision cross section [2] of 448.53 ± 4.9 Å².
LEQVEKELLR [_LEQVEK(Propionyl)ELLR_] showed a collision cross section [3] of 387.92 ± 0.44 Å².
LEQVEKELLR [_LEQVEK(Succinyl)ELLR_] showed a collision cross section [4] of 384.25 ± 0.76 Å².
With “LEQVEKELLR [_LEQVEK(Trimethyl (K))ELLR_]” the collision cross section [5] was 387.44 ± 0.62 Å² and the collision cross section [6] was 446.8 ± 1.8 Å².
“LEQVEKELLR [_LEQVEK(hydroxyisobutyryl)ELLR_]” gave a collision cross section [7] of 394.74 ± 0.29 Å².
For “LFVGGIKEDTEEHHLR [_LFVGGIK(Acetyl (K))EDTEEHHLR_]”, the collision cross section [10] was 494.34 Å² and the collision cross section [21] was 543.04 ± 0.75 Å².
Work on “LFVGGIKEDTEEHHLR [_LFVGGIK(Butyryl)EDTEEHHLR_]” yielded a collision cross section [12] of 500.41 ± 0.28 Å² and a collision cross section [22] of 545.89 ± 1.3 Å².
For “LFVGGIKEDTEEHHLR [_LFVGGIK(Crotonyl)EDTEEHHLR_]”, the collision cross section [23] was 544.97 ± 1.3 Å².
In the case of “LFVGGIKEDTEEHHLR [_LFVGGIK(Formyl)EDTEEHHLR_]”, the collision cross section [24] is reported as 535.03 ± 1.3 Å².
“LFVGGIKEDTEEHHLR [_LFVGGIK(Gluratylation)EDTEEHHLR_]” showed a collision cross section [17] of 501.63 ± 1.9 Å² and a collision cross section [25] of 544.37 ± 0.97 Å².
“LFVGGIKEDTEEHHLR [_LFVGGIK(GlyGly (K))EDTEEHHLR_]” showed a collision cross section [18] of 499.18 Å² and a collision cross section [19] of 544.61 ± 1.1 Å².
Work on “LFVGGIKEDTEEHHLR [_LFVGGIK(Malonyl)EDTEEHHLR_]” yielded a collision cross section (charge state: 3, modification: Malonyl) of 537.8 Å².
For “LFVGGIKEDTEEHHLR [_LFVGGIK(Methyl (K))EDTEEHHLR_]”, the collision cross section [2] was 545.41 Å².
With “LFVGGIKEDTEEHHLR [_LFVGGIK(Succinyl)EDTEEHHLR_]” the collision cross section [4] was 497.55 Å² and the collision cross section [26] was 541.97 ± 1.1 Å².
“LFVGGIKEDTEEHHLR [_LFVGGIK(hydroxyisobutyryl)EDTEEHHLR_]” showed a collision cross section [7] of 501.81 Å² and a collision cross section [27] of 546.81 ± 1.2 Å².
Work on “LGDVYVNDAFGTAHR [_LGDVY(Nitro (Y))VNDAFGTAHR_]” yielded a collision cross section [8] of 443.1 ± 0.55 Å² and a collision cross section (charge state: 3, modification: Nitro (Y)) of 500.36 ± 1.2 Å².
“LGGDLGTYVINK [_LGGDLGTY(Nitro (Y))VINK_]” gave a collision cross section [8] of 371.97 ± 0.72 Å².
Work on “LGGDLGTYVINK [_LGGDLGTY(Phospho (Y))VINK_]” yielded a collision cross section [9] of 375.25 ± 0.063 Å².
Substance LGHYATQLQK [_LGHYAT(HexNAc (ST))QLQK_] has a collision cross section [28] of 388.93 ± 0.68 Å² and a collision cross section [29] of 446.62 ± 0.17 Å².
“LGILPVGRGK [_LGILPVGR(Citrullination (R))GK_]” gave a collision cross section [30] of 340.52 ± 0.26 Å².
For LGILPVGRGK [_LGILPVGR(Methyl (R))GK_], the collision cross section (charge state: 2, modification: Methyl (R)) was 355.35 ± 1.4 Å² and the collision cross section [31] was 437.92 Å².
LGNDFHTNKR [_LGNDFHTNK(Acetyl (K))R_] gave a collision cross section [10] of 373.86 ± 3.5 Å² and a collision cross section [21] of 444.24 ± 4 Å².
For LGNDFHTNKR [_LGNDFHTNK(Butyryl)R_], the collision cross section [12] was 377.65 ± 0.22 Å² and the collision cross section [22] was 446.3 ± 2.8 Å².
In the case of LGNDFHTNKR [_LGNDFHTNK(Crotonyl)R_], the collision cross section [13] is reported as 379.22 ± 1.3 Å² and the collision cross section [23] is reported as 445.34 ± 2 Å².
For LGNDFHTNKR [_LGNDFHTNK(Dimethyl (K))R_], the collision cross section [14] was 366.02 ± 0.57 Å² and the collision cross section [15] was 412.91 ± 1.1 Å².
With LGNDFHTNKR [_LGNDFHTNK(Formyl)R_] the collision cross section [16] was 366.48 ± 1.5 Å² and the collision cross section [24] was 438.07 ± 2.4 Å².
In the case of “LGNDFHTNKR [_LGNDFHTNK(Gluratylation)R_]”, the collision cross section [17] is reported as 382 ± 0.1 Å² and the collision cross section [25] is reported as 434.71 ± 2.9 Å².
In the case of LGNDFHTNKR [_LGNDFHTNK(GlyGly (K))R_], the collision cross section [18] is reported as 384.34 ± 1.5 Å² and the collision cross section [19] is reported as 447.63 ± 1.2 Å².
LGNDFHTNKR [_LGNDFHTNK(Malonyl)R_] gave a collision cross section [20] of 378.38 Å².
Work on LGNDFHTNKR [_LGNDFHTNK(Methyl (K))R_] yielded a collision cross section [1] of 368.02 ± 0.46 Å² and a collision cross section [2] of 430.67 ± 6.2 Å².
In the case of LGNDFHTNKR [_LGNDFHTNK(Propionyl)R_], the collision cross section [3] is reported as 374.29 Å² and the collision cross section (charge state: 3, modification: Propionyl) is reported as 447.46 ± 0.59 Å².
With LGNDFHTNKR [_LGNDFHTNK(Succinyl)R_] the collision cross section [4] was 377.52 ± 0.24 Å² and the collision cross section [26] was 436.15 ± 2.9 Å².
“LGNDFHTNKR [_LGNDFHTNK(Trimethyl (K))R_]” gave a collision cross section [6] of 415.91 ± 2.1 Å².
In the case of “LGNDFHTNKR [_LGNDFHTNK(hydroxyisobutyryl)R_]”, the collision cross section [7] is reported as 382.96 ± 0.86 Å² and the collision cross section [27] is reported as 448.25 ± 2.7 Å².
Work on “LGNTISSLFGGGTTPDAK [_LGNTISSLFGGGT(HexNAc (ST))TPDAK_]” yielded a collision cross section [28] of 471.52 Å².
In the case of LGPNDQYK [_LGPNDQY(Nitro (Y))K_], the collision cross section [8] is reported as 332.94 ± 1.8 Å².
In the case of LGPNDQYK [_LGPNDQY(Phospho (Y))K_], the collision cross section [9] is reported as 336.82 ± 0.067 Å².
With “LGPPGNPGPSGSPGPK [_LGPPGNP(Hydroxyproline)GPSGSPGPK_]” the collision cross section [32] was 386.54 ± 0.27 Å² and the collision cross section [33] was 431.89 Å².
Substance “LGPPGNPGPSGSPGPKGQK [_LGPPGNP(Hydroxyproline)GPSGSPGPKGQK_]” has a collision cross section [33] of 472.87 ± 1.2 Å².
“LGPPGNPGPSGSPGPKGQK [_LGPPGNPGPSGSP(Hydroxyproline)GPKGQK_]” gave a collision cross section [32] of 423.7 ± 3 Å².
“LGSASSSHGSIQESHK [_LGS(HexNAc (ST))ASSSHGSIQESHK_]” showed a collision cross section [29] of 519.96 ± 0.18 Å².
For LGSPSGKTGTCR [_LGSPSGK(Butyryl)TGTCR_], the collision cross section [12] was 373.24 ± 0.22 Å².
Work on “LGSPSGKTGTCR [_LGSPSGK(Gluratylation)TGTCR_]” yielded a collision cross section [17] of 369.43 ± 0.9 Å².
“LGSPSGKTGTCR [_LGSPSGK(GlyGly (K))TGTCR_]” showed a collision cross section [19] of 454.35 ± 1.5 Å².
With LGSPSGKTGTCR [_LGSPSGK(Malonyl)TGTCR_] the collision cross section [20] was 365.24 ± 0.013 Å².
Work on LGSPSGKTGTCR [_LGSPSGK(Succinyl)TGTCR_] yielded a collision cross section [4] of 368.12 ± 0.52 Å².
“LGSPSGKTGTCR [_LGSPSGK(hydroxyisobutyryl)TGTCR_]” gave a collision cross section [7] of 375.43 Å².
In the case of “LGTTPSVYGGAGGRGIR [_LGTTPSVYGGAGGR(Citrullination (R))GIR_]”, the collision cross section [30] is reported as 423 ± 0.56 Å² and the collision cross section (charge state: 3, modification: Citrullination (R)) is reported as 500.66 ± 24 Å².
In the case of “LGTTPSVYGGAGGRGIR [_LGTTPSVYGGAGGR(Methyl (R))GIR_]”, the collision cross section [31] is reported as 525.94 ± 0.78 Å².
“LGVATVAKGVCGACK [_LGVATVAK(Acetyl (K))GVCGACK_]” gave a collision cross section [10] of 413.53 ± 0.49 Å².
Substance “LGVATVAKGVCGACK [_LGVATVAK(Biotin)GVCGACK_]” has a collision cross section [11] of 431.82 Å² and a collision cross section (charge state: 3, modification: Biotin) of 507.7 Å².
“LGVATVAKGVCGACK [_LGVATVAK(Butyryl)GVCGACK_]” showed a collision cross section [12] of 418.39 ± 0.77 Å² and a collision cross section [22] of 491.64 Å².
Substance “LGVATVAKGVCGACK [_LGVATVAK(Gluratylation)GVCGACK_]” has a collision cross section [17] of 422.53 Å² and a collision cross section [25] of 500.02 Å².
